Measurements from paper PMC2139871.

Experiments:
[1] = molecular target: cytoplasmic dynein 74-kD intermediate chain (mouse (endogenous in J774)) (UniProt O88487); test: co-IP
[2] = molecular target: actin-related protein Arp1 of the dynactin complex (mouse (endogenous in J774)) (UniProt P61164); test: co-IP
Sequence of UniProt P61164 (P61164 whole entry, one chain of several): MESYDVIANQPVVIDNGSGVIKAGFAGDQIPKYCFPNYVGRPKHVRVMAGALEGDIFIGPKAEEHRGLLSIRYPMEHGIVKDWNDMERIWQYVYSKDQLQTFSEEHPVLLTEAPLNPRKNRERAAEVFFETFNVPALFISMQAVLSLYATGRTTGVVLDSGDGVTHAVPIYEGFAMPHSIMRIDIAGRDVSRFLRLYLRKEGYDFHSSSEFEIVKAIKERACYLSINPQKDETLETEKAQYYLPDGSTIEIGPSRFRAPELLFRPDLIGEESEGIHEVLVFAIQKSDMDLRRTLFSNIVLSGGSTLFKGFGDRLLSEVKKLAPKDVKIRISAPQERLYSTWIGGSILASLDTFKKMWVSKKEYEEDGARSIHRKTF

Sequence of UniProt O88487 (O88487 whole entry): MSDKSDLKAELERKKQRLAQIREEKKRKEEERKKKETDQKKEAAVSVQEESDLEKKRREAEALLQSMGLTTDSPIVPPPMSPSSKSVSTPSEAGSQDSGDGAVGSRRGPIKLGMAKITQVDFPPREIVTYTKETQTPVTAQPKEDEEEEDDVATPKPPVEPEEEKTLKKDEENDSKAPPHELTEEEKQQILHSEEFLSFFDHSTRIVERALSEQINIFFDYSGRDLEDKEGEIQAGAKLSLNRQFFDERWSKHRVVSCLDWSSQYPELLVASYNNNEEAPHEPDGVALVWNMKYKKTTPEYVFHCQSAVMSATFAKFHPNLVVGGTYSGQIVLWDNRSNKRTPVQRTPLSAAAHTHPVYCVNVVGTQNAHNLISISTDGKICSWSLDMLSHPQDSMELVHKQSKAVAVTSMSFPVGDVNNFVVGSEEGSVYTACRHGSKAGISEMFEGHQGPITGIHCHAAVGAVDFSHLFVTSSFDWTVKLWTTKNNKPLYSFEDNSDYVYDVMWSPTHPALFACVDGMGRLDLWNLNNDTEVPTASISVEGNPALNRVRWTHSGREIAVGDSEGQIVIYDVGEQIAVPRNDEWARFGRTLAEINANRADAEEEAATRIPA

Row | percent removed from cytosol by immunodepletion of the bait [1] [%] | percent removed from cytosol by immunodepletion of the bait [2] [%] | Substance
1 | 80 |  | cytoplasmic dynein heavy chain (from UniProt Q9JHU4 1-4644) (natural protein)
2 |  | 95 | dynactin subunit p150^Glued (from UniProt O08788 1-1281) (natural protein)
